Experimental data taken from article PMC5583966, “Sustained-release study on Exenatide loaded into mesoporous silica nanoparticles: in vitro characterization and in vivo evaluation” (DARU Journal of Pharmaceutical Sciences, 2017).

How the values were obtained:
[1] = Pharmacokinetics study after s.c. injection in SD rats; assay type: in vivo
Description: Pharmacokinetic studies of EXT-Sol and EXT-SBA-15 were conducted in healthy male SD rats. Sixteen rats were randomly divided into two groups (n = 8) and fasted overnight with free access to water before administration. SD rats were received s.c. administration of EXT-Sol and EXT-SBA-15 at a single EXT dose of 50 μg/kg, respectively. The blood samples (0.5 mL) of EXT-Sol treatment group were collected from the rat’s orbit and at specific time 0, 0.25, 0.5, 1, 1.5, 2, 3, 4, 6, 8 h after injection. The blood samples (0.5 mL) of EXT-SBA-15 treatment group (0.5 mL) were collected at 0, 0.5, 1, 1.5, 2, 3, 5, 8, 12, 24, 36, 48, 72, 120 h. The collected blood samples were centrifuged at 503×g for 10 min to obtain the plasma, which were stored at −80 °C for further analysis. The plasma concentrations of EXT were measured by Exendin-4 ELISA kit according to the instructions supplied by the manufacturer. The relevant pharmacokinetic parameters were analyzed by PKSolver 2.0 [25].

[2] = test system: STZ-induced type 2 diabetic ICR mice (blood glucose); test: In vivo pharmacodynamics study: blood glucose of STZ-induced type 2 diabetic mice; details: s.c., EXT 3 μg/kg/d twice daily, days 0-25, measured before administration, n = 6
Description: Type 2 diabetes model was induced by STZ with multiple injection method into ICR mice. Each mouse was injected intraperitoneally with 30 mg/kg⋅d STZ in 0.1 mol/L citric acid buffer (pH 5.0). One week after the injection, mice were fasted for 12 h (with free access to water) before their blood glucose was measured by glucometer (Accu-Chek Performa, Germany). Diabetic mice were considered by fasting blood glucose above 11.1 mmol/L. Six healthy normal ICR mice were used as the blank control group (A). Twenty-four mice that had developed type 2 diabetes were randomly divided into four experimental groups and received s.c. administration of saline (B), EXT-Sol (C), EXT-SBA-15 (D) and SBA-15 (E), respectively. Group A and B received saline twice daily via s.c. administration. Group C received EXT-Sol twice daily with a dose of EXT (3 μg/kg/d). Group D and E were administrated a single injection of EXT-SBA-15 (600 μg/kg) and SBA-15 via s.c. administration, respectively. The blood sample (about 0.2 ml) was collected from the tail-vein on days 0, 1, 5, 10, 15, 20, 25 for all groups, and blood glucose levels were determined measured simultaneously with a glucometer before administration.

[3] = single EXT dose 50 μg/kg, plasma, Exendin-4 ELISA, Mean ± SD, n = 8
[4] = single EXT dose 50 μg/kg, plasma, Exendin-4 ELISA, two-compartment model, Mean ± SD, n = 8

EXT-Sol: Exenatide (EXT) solution, injected s.c. as comparator
time at which plasma concentration had decreased to baseline ([1]; EXT dose 50 μg/kg): 8 h | AUC0→t [1, 3]: 1.71 ± 0.07 ng⋅ml^−1⋅h | AUC0→∞ [1, 3]: 1.71 ± 0.07 ng⋅ml^−1⋅h | MRT mean residence time [1, 3]: 68.4 ± 4.2 min | c max peak concentration [1, 3]: 1.16 ± 0.09 ng⋅ml^−1 | t 1/2(α) half-life of distribution [1, 4]: 13.2 ± 1.8 min | t 1/2(β) half-life of elimination [1, 4]: 36 ± 4.8 min | long-term glucose lowering effect, up to 25 days [2]: not observed
